Measured values: article PMC9627735 (RSC Chemical Biology, 2022)
Numbering of substitutions follows the chain as printed. Names and notes keep the numbering of the source.

How the values were obtained:
[1] = target: recombinant human wildtype Bri2 BRICHOS (human) (UniProt Q9Y287); experiment: SEC; rh Bri2 BRICHOS at pH 6.0, 20 mmol L^-1 NaPi, 0.2 mmol L^-1 EDTA (ESI Fig. S2c, d); monomer to dimer
[2] = target: recombinant human wildtype Bri2 BRICHOS (human) (UniProt Q9Y287); experiment: SEC; rh Bri2 BRICHOS wildtype and D148N at rising concentrations, 0.5 to 200 μmol L^-1 (ESI Fig. S2a, b, S3, S4); monomer to dimer
[3] = target: the molecule itself; experiment: other fluorescence titration; Trp fluorescence of rh Bri2 BRICHOS T206W monomers, 2 μmol L^-1, 20 mmol L^-1 NaPi, 0.2 mmol L^-1 EDTA, pH 6.3-8.0; excitation 280 nm; monomer to dimer
[4] = target: the molecule itself; experiment: SEC; rh Bri2 BRICHOS species obtained by thrombin cleavage of isolated NT*-Bri2 BRICHOS species; Superdex 200 PG, 200 GL or 75 PG; 20 mmol L^-1 NaPi, 0.2 mmol L^-1 EDTA
[5] = target: the molecule itself; experiment: SEC; rh Bri2 BRICHOS wildtype and D148N at rising concentrations, 0.5 to 200 μmol L^-1 (ESI Fig. S2a, b, S3, S4); monomer to dimer
[6] = target: the molecule itself; experiment: SEC; purified rh proSP-C BRICHOS variants on Superdex 200 GL

## recombinant human wildtype Bri2 BRICHOS (from UniProt Q9Y287 113-231) (domain or fragment)
[1]
  stoichiometry N: 2
[2]
  stoichiometry N: 2

B1: recombinant human Bri2 BRICHOS T206W (domain or fragment, UniProt Q9Y287 113-231, looked up)
chain: QTIEENIKIFEEEEVEFISVPVPEFADSDPANIVHDFNKKLTAYLDLNLDKCYVIPLNTSIVMPPRNLLELLINIKAGTYLPQSYLIHEHMVIWDRIENIDHLGFFIYRLCHDKETYKL
notes: integral membrane protein 2B (ITM2B, Bri2), human, BRICHOS domain, residues 113-231, with Thr206 replaced by Trp; also called rh Bri2 BRICHOS T206W; source: E. coli SHuffle T7, purified (Ni-NTA, thrombin cleavage, second Ni-NTA, SEC); not shown: His6, N-terminal, cleaved; NT*, N-terminal, cleaved
[3]
  binding result: binds

B2: recombinant human Bri2 BRICHOS D148N (domain or fragment, UniProt Q9Y287 113-231, looked up)
chain: B1 chain with D36N, W94T
notes: integral membrane protein 2B (ITM2B, Bri2), human, BRICHOS domain, residues 113-231, with D148N; Occurs as monomers, dimers and large oligomers, isolated by SEC; all species are this one construct; also called rh Bri2 BRICHOS D148N; source: E. coli SHuffle T7, purified (Ni-NTA, thrombin cleavage, second Ni-NTA, SEC); not shown: His6, N-terminal, cleaved; NT*, N-terminal, cleaved
[4]
  stoichiometry N: 2
[5]
  ratio of dimers to monomers at 0.5 μmol L^-1: ~1

B3: recombinant human wildtype proSP-C BRICHOS (domain or fragment, UniProt P11686 86-197, looked up)
chain: EHLVTTATFSIGSTGLVVYDYQQLLIAYKPAPGTCCYIMKIAPESIPSLEALTRKVHNFQMECSLQAKPAVPTSKLGQAEGRDAGSAPSGGDPAFLGMAVSTLCGEVPLYYI
notes: prosurfactant protein C (proSP-C), human, BRICHOS domain, residues 86-197; Forms trimers and some monomers on SEC; also called rh wildtype proSP-C BRICHOS; wt proSP-C BRICHOS; source: E. coli Origami 2 (DE3) pLysS, purified (Ni-NTA, ion exchange); not shown: thioredoxin, N-terminal, cleaved
[6]
  stoichiometry N: 3

B4: recombinant human proSP-C BRICHOS D105N (domain or fragment, UniProt P11686 86-197, looked up)
chain: B3 chain with D20N
notes: prosurfactant protein C (proSP-C), human, BRICHOS domain, residues 86-197, with D105N; Made by site-directed mutagenesis of the wildtype plasmid; expressed and purified in parallel with the wildtype; also called rh proSP-C BRICHOS D105N; D105N mutant; source: E. coli Origami 2 (DE3) pLysS, purified (Ni-NTA, ion exchange); not shown: thioredoxin, N-terminal, cleaved
[6]
  stoichiometry N: 3
